This assay has as its system hMSSCs. The experiment in a line: Differentiation tendency of MSSC medium vs. CM medium. Particulars: as compared when the CM medium was used. The assay is classed as cell-based, human. The method, then:
The differentiation capacity of a medium (hereinafter, “CM medium”) obtained by replacing the human noggin (Life Technologies), i.e., the constitutional ingredient 1) of the seven constitutional ingredients of the MSSC medium of Example 2, with a conditioned medium (a culture supernatant obtained after culturing CF1 cells with a medium obtained by replacing DMEM/F12 in a complete medium with knockout DMEM (supplemented with 20% knockout serum replacement (Invitrogen, USA), 1 mM glutamine, 1% nonessential amino acids (Invitrogen, USA), 0.1 mM β-mercaptoethanol, 0.1% penicillin-streptomycin and 5 mg/mL bovine serum albumin)) (the remaining constitutional ingredients 2)-7) are identical) was compared with that of the MSSC medium.
Noggin is generally used to maintain the characteristics of hESCs during culturing (Chaturvedi G, Simone P D, Ain R, Soares M J, Wolfe M W. Noggin maintains pluripotency of human embryonic stem cells grown on Matrigel. Cell Prolif. 2009 August; 42(4): 425-33).

The values that follow come from patent USRE50313E1, “Musculoskeletal stem cell and medium for inducing differentiation of musculoskeletal stem cell” (CELLATOZ THERAPEUTICS, INC., priority 2017, dated 2025).

Bounds are passed on as bounds.

B1: noggin: human noggin, constitutional ingredient 1) of the MSSC medium, 250 ng/mL (protein, UniProt Q13253 28-232, looked up)
Noggin: QHYLHIRPAPSDNLPLVDLIEHPDPIFDPKEKDLNETLLRSLLGGHYDPGFMATSPPEDRPGGGGGAAGGAEDLAELDQLLRQRPSGAMPSEIKGLEFSEGLAQGKKQRLSKKLRRKLQMWLWSQTFCPVLYAWNDLGSRFWPRYVKVGSCFSKRSCSVPEGMVCKPSKSVHLTVLRWRCQRRGGQRCGWIPIQYPIISECKCSC
For the molecule B1, the “increase of tendency for osteogenic differentiation” value was not below 10 times.
